From patent US20200306385A1 (ADC THERAPEUTICS S A, published 2020)

Target: CD22 (human, UniProt P20273 20-847)
Test: cell-based or functional assay

B1: Epratuzumab-A (antibody, V domains shown)
VH: QVQLVQSGAEVKKPGSSVKVSCKASGYTFTSYWLHWVRQAPGQGLEWIGYINPRNDYTEYNQNFKDKATITADESTNTAYMELSSLRSEDTAFYFCARRDITTFYWGQG
VL: DIQLTQSPSSLSASVGDRVTMSCKSSQSVLYSANHKNYLAWYQQKPGKAPKLLIYWASTRESGVPSRFSGSGSGTDFTFTISSLQPEDIATYYCHQYLSSWTFGQG
modifications: PBD dimer drug-linker A (SG3246) conjugated to thiols of TCEP-reduced cysteine disulfide bridges; DAR 2.03; which cysteines are modified is not stated
For B1, the “EC50 (µg/mL), in vitro cytotoxicity (cell survival, Alamar Blue, 4 days) on CD22+ve Daudi cells” value was 0.0136 µg/mL, the “EC50 (µg/mL), in vitro cytotoxicity (cell survival, Alamar Blue, 4 days) on CD22+ve Ramos cells” value was 0.0332 µg/mL and the “EC50 (µg/mL), in vitro cytotoxicity (cell survival, Alamar Blue, 4 days) on CD22+ve WSU-DLCL2 cells” value was 0.0243 µg/mL.
